From US20120316071A1 (published 2012)
Blank lines part the entries; values can stand above or below the binder they belong to.

Legend:
[1] = target: T1, Recombinant Human DLL4 (R&D Systems Cat#1506-D4/CF) (human, UniProt Q9NR61 27-524); assay: Multispot ECL (MSD), antigen spotted on plate, Fab 36.3 nM; blank spot 314
T1 construct: Bought recombinant protein; also called rHuman DLL4; delta-like protein 4

[2] = target: T2, rHuman IGF-1 sR, (IGF-1 sR), CF (R&D Systems Cat#391-GR) (human, UniProt P08069 31-932); assay: as above
T2 construct: Bought recombinant soluble receptor; also called insulin-like growth factor-1 soluble receptor

[3] = target: T3, rHuman ErbB2/Fc Chimera, CF (R&D Systems Cat#1129-ER) (human, UniProt P04626 23-652); assay: as above
T3 construct: Bought recombinant protein; also called human epidermal growth factor 2 receptor; Fc part of the bought chimera not given

[4] = target: T4, rHuman HGF R/c-MET/Fc Chimera, CF (R&D Systems Cat#358-MT/CF) (human, UniProt P08581 25-932); assay: as above
T4 construct: Bought recombinant protein; also called HGF R/Fc; hepatocyte growth factor receptor; Fc part of the bought chimera not given

[5] = target: T5, rHuman EGF R/Fc Chimera, CF (R&D Systems Cat#344-ER) (human, UniProt P00533 25-645); assay: as above
T5 construct: Bought recombinant protein; also called epidermal growth factor receptor; Fc part of the bought chimera not given

[6] = target: T1, Recombinant Human DLL4 (R&D Systems …); assay: Multispot ECL (MSD), antigen spotted on plate, Fab 9.1 nM; blank spot 276
[7] = target: T2, rHuman IGF-1 sR, (IGF-1 sR), CF (R&D …); assay: as above
[8] = target: T3, rHuman ErbB2/Fc Chimera, CF (R&D …); assay: as above
[9] = target: T4, rHuman HGF R/c-MET/Fc Chimera, CF (R&D …); assay: as above
[10] = target: T5, rHuman EGF R/Fc Chimera, CF (R&D …); assay: as above
[11] = target: T1, Recombinant Human DLL4 (R&D Systems …); assay: Multispot ECL (MSD), antigen spotted on plate, Fab 580 nM; blank spot 679
[12] = target: T2, rHuman IGF-1 sR, (IGF-1 sR), CF (R&D …); assay: as above
[13] = target: T3, rHuman ErbB2/Fc Chimera, CF (R&D …); assay: as above
[14] = target: T4, rHuman HGF R/c-MET/Fc Chimera, CF (R&D …); assay: as above
[15] = target: T5, rHuman EGF R/Fc Chimera, CF (R&D …); assay: as above
[16] = target: T1, Recombinant Human DLL4 (R&D Systems …); assay: Multispot ECL (MSD), antigen spotted on plate, Fab 145 nM; blank spot 357
[17] = target: T2, rHuman IGF-1 sR, (IGF-1 sR), CF (R&D …); assay: as above
[18] = target: T4, rHuman HGF R/c-MET/Fc Chimera, CF (R&D …); assay: as above
[19] = target: T5, rHuman EGF R/Fc Chimera, CF (R&D …); assay: as above
[20] = target: T6, Recombinant Human DLL4 (R&D Systems Cat#1506-D4/CF) (human, UniProt Q9NR61 27-524); assay: Multispot ECL titration
T6 construct: bought recombinant protein; also called rHuman DLL4; delta-like protein 4

[21] = target: T7, rHuman IGF-1 sR, CF (R&D Systems Cat#391-GR) (human, UniProt P08069 31-932); assay: Multispot ECL
T7 construct: bought soluble receptor; also called insulin-like growth factor-1 soluble receptor

[22] = target: T6, Recombinant Human DLL4 (R&D Systems …); assay: control in the Notch reporter assay; binding assay not described

T4 sequence (P08581 25-932, change not shown): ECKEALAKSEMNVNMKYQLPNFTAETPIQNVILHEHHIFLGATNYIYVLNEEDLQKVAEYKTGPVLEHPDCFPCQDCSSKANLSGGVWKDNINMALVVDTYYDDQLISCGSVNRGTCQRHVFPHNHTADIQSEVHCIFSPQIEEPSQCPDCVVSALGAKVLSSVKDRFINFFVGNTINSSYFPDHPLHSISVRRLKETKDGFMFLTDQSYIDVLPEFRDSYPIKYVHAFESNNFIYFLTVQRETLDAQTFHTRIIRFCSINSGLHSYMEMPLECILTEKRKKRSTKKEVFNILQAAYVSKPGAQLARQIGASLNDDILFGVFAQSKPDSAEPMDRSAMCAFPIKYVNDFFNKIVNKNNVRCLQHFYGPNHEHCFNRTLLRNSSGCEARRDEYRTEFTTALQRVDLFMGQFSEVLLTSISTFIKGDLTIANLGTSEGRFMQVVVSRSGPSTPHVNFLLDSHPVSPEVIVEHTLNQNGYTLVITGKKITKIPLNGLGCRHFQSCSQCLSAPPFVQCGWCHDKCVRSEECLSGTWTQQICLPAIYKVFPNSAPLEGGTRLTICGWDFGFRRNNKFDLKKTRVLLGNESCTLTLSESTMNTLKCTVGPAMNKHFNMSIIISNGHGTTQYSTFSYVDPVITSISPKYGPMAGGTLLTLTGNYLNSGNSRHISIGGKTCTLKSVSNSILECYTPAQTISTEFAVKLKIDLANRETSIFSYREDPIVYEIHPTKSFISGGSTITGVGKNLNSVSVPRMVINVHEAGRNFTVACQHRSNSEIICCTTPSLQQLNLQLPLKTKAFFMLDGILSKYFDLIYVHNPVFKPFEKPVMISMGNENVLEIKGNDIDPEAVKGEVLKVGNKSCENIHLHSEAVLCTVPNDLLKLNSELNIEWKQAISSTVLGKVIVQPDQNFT

- ECL signal at 36.3 nM Fab [1]: 1400
- ECL signal at 36.3 nM Fab [2]: 799
- ECL signal at 36.3 nM Fab [3]: 1030
- ECL signal at 36.3 nM Fab [4]: 1060
- ECL signal at 36.3 nM Fab [5]: 831
- ECL signal at 9.1 nM Fab [6]: 1030
- ECL signal at 9.1 nM Fab [7]: 788
- ECL signal at 9.1 nM Fab [8]: 987
- ECL signal at 9.1 nM Fab [9]: 894
- ECL signal at 9.1 nM Fab [10]: 800
- ECL signal at 580 nM Fab [11]: 4420
- ECL signal at 580 nM Fab [12]: 1360
- ECL signal at 580 nM Fab [13]: 1710
- ECL signal at 580 nM Fab [14]: 2340
- ECL signal at 580 nM Fab [15]: 1630
- ECL signal at 145 nM Fab [16]: 2140
- ECL signal at 145 nM Fab [17]: 794
- ECL signal at 145 nM Fab [18]: 1170
- ECL signal at 145 nM Fab [19]: 856
B1: Fab VH4-34_IGHD7-27*01_IGHJ4*01 & V1-4_IGLJ4*01 (Fab, V domains shown)
VH: QVQLQQWGAGLLKPSETLSLTCAVYGGSFSGYYWSWIRQPPGKGLEWIGEINHSGSTNYNPSLKSRVTISVDTSKNQFSLKLSSVTAADTAVYYCARANWGDYFDYWGQGTLVTVSS
VL: QSALTQPASVSGSPGQSITISCTGTSSDVGGYNYVSWYQQHPGKAPKLMIYEVSNRPSGVSNRFSGSKSGNTASLTISGLQAEDEADYYCSSYTSSSTLFVFGGGTQLIIL
notes: Tested as a Fab made in E. coli; The heavy chain variable region was cloned into Plasmid A (CH1 constant region, His6 and Flag tags); The lambda light chain variable region was cloned into Plasmid E (lambda CL); Only the variable domains are tied to this Fab by name

- fold binding affinity against the parent antibody [20]: 10 fold
- binding result [21]: no binding
B2: Fab VH1-46_IGHD6-6*01_IGHJ1*01 S102A/S103P/S104F & L6_IGKJ1*01 (Fab, V domains shown)
VH: QVQLVQSGAEVKKPGASVKVSCKASGYTFTSYYMHWVRQAPGQGLEWMGIINPSGGSTSYAQKFQGRVTMTRDTSTSTVYMELSSLRSEDTAVYYCAREEYAPFSAEYFQHWGQGTLVTVSS
VL: not shown
notes: Fab; also called H:APF & L:wt; APF triple mutant

- binding result [22]: no binding
B3: control Fab VH6-1_IGHD6-13*01_IGHJ4*01 and V2-17_IGLJ2*01 (Fab, V domains shown)
VH: QVQLQQSGPGLVKPSQTLSLTCAISGDSVSSNSAAWNWIRQSPSRGLEWLGRTYYRSKWYNDYAVSVKSRITINPDTSKNQFSLQLNSVTPEDTAVYYCAREGYSSSWYDYFDYWGQGTLVTVSS
VL: SYELTQPPSVSVSPGQTARITCSGDALPKQYAYWYQQKPGQAPVLVIYKDSERPSGIPERFSGSSSGTTVTLTISGVQAEDEADYYCQSADSSGTYPVVFGGGTKLTVL
